# Reference: publication PMC3953254
# Target: SadB (cytosolic construct without signal peptide, Cys-22 replaced by serine) (S. typhimurium) (UniProt Q8ZL65)
# Assay: crystal structure; SadB at 8 mg/ml in 20 mM MOPS/HCl, pH 7, 50 mM NaCl; sitting drop at 20 °C; reservoir 0.2 M lithium sulfate, 0.1 M Tris, pH 8.5, 20% (w/v) PEG 4000; 2.45 Å
substance,measurement,value
"SadB (cytosolic construct without signal peptide, Cys-22 replaced by serine) (from UniProt Q8ZL65 22-227) (domain or fragment)",stoichiometry N,3
